Drawing on patent US20240018502A1, this text covers EC50 hC3 cleavage and EC50 of hC3 cleavage for 40 molecules.

B1: MTSP-1 protease domain I41G/F97A/F99L/C122S/G151H/Q175L/Q192G/D217L (enzyme)
chain: VVGGTDADEGEWPWQVSLHALGQGHGCGASLISPNWLVSAAHCYIDDRGFRYSDPTQWTAFLGLHDQSQRSAPGVQERRLKRIISHPFFNDATLDYDIALLELEKPAEYSSMVRPISLPDASHVFPAGKAIWVTGWGHTQYGGTHALILQKGEIRVINQTTCENLLPQLITPRMMCVGFLSGGVDSCGGDSGGPLSSVEADGRIFQAGVVSWGLGCAQRNKPGVYTRLPLFRDWIKENTGV
B2: MTSP-1 protease domain I41R/F97A/F99L/C122S/G151N/Q175R/Q192G/D217Q (enzyme)
chain: B1 chain with G26R, H145N, L169R, L214Q
B3: MTSP-1 protease domain I41G/F97L/F99L/C122S/G151T/Q175M/Q192D/D217M (enzyme)
chain: B1 chain with A92L, H145T, L169M, G188D, L214M
B4: MTSP-1 protease domain I41G/F97S/F99L/C122S/G151T/Q175R/Q192A/D217Y (enzyme)
chain: B1 chain with A92S, H145T, L169R, G188A, L214Y
B5: MTSP-1 protease domain I41G/F99L/C122S/G151N/Q175I/Q192T/D217T (enzyme)
chain: B1 chain with A92F, H145N, L169I, G188T, L214T
B6: MTSP-1 protease domain I41G/F97L/F99L/C122S/G151N/Q175A/Q192V/D217R (enzyme)
chain: B1 chain with A92L, H145N, L169A, G188V, L214R
B7: MTSP-1 protease domain F97S/F99L/C122S/G151N/Q175I/Q192T/D217T (enzyme)
chain: B1 chain with G26I, A92S, H145N, L169I, G188T, L214T
B8: MTSP-1 protease domain I41G/F97S/F99L/C122S/G151N/Q175I/Q192T/D217T (enzyme)
chain: B1 chain with A92S, H145N, L169I, G188T, L214T
B9: MTSP-1 protease domain I41G/F97S/C122S/G151N/Q175I/Q192T/D217T (enzyme)
chain: B1 chain with A92S, L94F, H145N, L169I, G188T, L214T
B10: MTSP-1 protease domain I41G/F97T/F99M/C122S/G151D/Q175T/Q192T/D217V (enzyme)
chain: B1 chain with A92T, L94M, H145D, L169T, G188T, L214V
B11: MTSP-1 protease domain I41G/F97S/F99L/C122S/Q175I/Q192T/D217T (enzyme)
chain: B1 chain with A92S, H145G, L169I, G188T, L214T
B12: MTSP-1 protease domain I41S/F97E/F99L/C122S/G151N/Q175G/Q192R/D217A (enzyme)
chain: B1 chain with G26S, A92E, H145N, L169G, G188R, L214A
B13: MTSP-1 protease domain I41G/F97S/F99L/C122S/G151N/Q192T/D217T (enzyme)
chain: B1 chain with A92S, H145N, L169Q, G188T, L214T
B14: MTSP-1 Q38H/I41A/D60bV/F60eR/Y60gW/D96I/F97N/T98G/F99L/C122S/G151N/Q175L/Q192D (enzyme)
chain: VVGGTDADEGEWPWQVSLHALGHGHACGASLISPNWLVSAAHCYIDVRGRRWSDPTQWTAFLGLHDQSQRSAPGVQERRLKRIISHPFFNINGLDYDIALLELEKPAEYSSMVRPISLPDASHVFPAGKAIWVTGWGHTQYGGTNALILQKGEIRVINQTTCENLLPQLITPRMMCVGFLSGGVDSCDGDSGGPLSSVEADGRIFQAGVVSWGDGCAQRNKPGVYTRLPLFRDWIKENTGV
B15: MTSP-1 protease domain Q38Y/I41S/D60bT/F60eR/Y60gW/D96M/T98G/F99L/C122S/G151N/Q175L/Q192D (enzyme)
chain: B14 chain with H23Y, A26S, V47T, I91M, N92F
B16: MTSP-1 protease domain Q38H/I41S/F60eT/Y60gW/D96M/F97N/T98G/F99L/C122S/G151N/Q175L/Q192D (enzyme)
chain: B14 chain with A26S, V47D, R50T, I91M
B17: MTSP-1 protease domain Q38Y/I41S/D60bT/F60eR/Y60gW/D96M/F97N/T98G/F99L/C122S/G151N/Q192D (enzyme)
chain: B14 chain with H23Y, A26S, V47T, I91M, L169Q
B18: MTSP-1 protease domain Q38Y/I41S/D60bT/F60eR/D96M/F97N/T98G/F99L/C122S/G151N/Q175L/Q192D (enzyme)
chain: B14 chain with H23Y, A26S, V47T, W52Y, I91M
B19: MTSP-1 protease domain Q38Y/I41S/F60eR/Y60gW/D96M/F97N/T98G/F99L/C122S/G151N/Q175L/Q192D (enzyme)
chain: B14 chain with H23Y, A26S, V47D, I91M
B20: MTSP-1 protease domain Q38Y/I41S/D60bT/F60eR/Y60gW/F97N/T98G/F99L/C122S/G151N/Q175L/Q192D (enzyme)
chain: B14 chain with H23Y, A26S, V47T, I91D
B21: MTSP-1 protease domain Q38Y/D60bT/F60eR/Y60gW/D96M/F97N/T98G/F99L/C122S/G151N/Q175L/Q192D (enzyme)
chain: B14 chain with H23Y, A26I, V47T, I91M
B22: MTSP-1 protease domain Q38Y/I41S/D60bT/Y60gW/D96M/F97N/T98G/F99L/C122S/G151N/Q175L/Q192D (enzyme)
chain: B14 chain with H23Y, A26S, V47T, R50F, I91M
B23: MTSP-1 protease domain Q38Y/I41S/D60bT/F60eR/Y60gW/D96M/F97N/T98G/F99L/C122S/G151N/Q175L/Q192D (enzyme)
chain: B14 chain with H23Y, A26S, V47T, I91M
B24: MTSP-1 protease domain Q38Y/I41S/D60bT/F60eR/Y60gW/D96M/F97N/T98G/F99L/C122S/G151N/Q175L (enzyme)
chain: B14 chain with H23Y, A26S, V47T, I91M, D188Q
B25: MTSP-1 protease domain Q38E/I41S/D60bV/F60eK/Y60gW/D96M/F97N/T98G/F99L/C122S/G151N/Q175L/Q192D (enzyme)
chain: B14 chain with H23E, A26S, R50K, I91M
B26: MTSP-1 protease domain I41S/D60bT/F60eR/Y60gW/D96M/F97N/T98G/F99L/C122S/G151N/Q175L/Q192D (enzyme)
chain: B14 chain with H23Q, A26S, V47T, I91M
B27: MTSP-1 protease domain Q38H/I41S/D60bT/F60eK/D96V/F97N/T98G/F99L/C122S/G151N/Q175L/Q192D (enzyme)
chain: B14 chain with A26S, V47T, R50K, W52Y, I91V
B28: MTSP-1 protease domain Q38Y/I41S/D60bT/F60eR/Y60gW/D96M/F97N/T98G/C122S/G151N/Q175L/Q192D (enzyme)
chain: B14 chain with H23Y, A26S, V47T, I91M, L94F
B29: MTSP-1 protease domain Q38Y/I41S/D60bV/F60eR/Y60gF/D96M/F97N/T98G/F99L/C122S/G151N/Q175L/Q192D (enzyme)
chain: B14 chain with H23Y, A26S, W52F, I91M
B30: MTSP-1 protease domain Q38Y/I41S/D60bT/F60eR/Y60gW/D96M/F97N/F99L/C122S/G151N/Q175L/Q192D (enzyme)
chain: B14 chain with H23Y, A26S, V47T, I91M, G93T
B31: MTSP-1 protease domain Q38H/I41S/D60bT/F60eS/Y60gW/D96Y/F97N/ins97aE/T98S/F99L/C122S/G151H/Q175L/Q192D (enzyme)
chain: VVGGTDADEGEWPWQVSLHALGHGHSCGASLISPNWLVSAAHCYIDTRGSRWSDPTQWTAFLGLHDQSQRSAPGVQERRLKRIISHPFFNYNESLDYDIALLELEKPAEYSSMVRPISLPDASHVFPAGKAIWVTGWGHTQYGGTHALILQKGEIRVINQTTCENLLPQLITPRMMCVGFLSGGVDSCDGDSGGPLSSVEADGRIFQAGVVSWGDGCAQRNKPGVYTRLPLFRDWIKENTGV
B32: MTSP-1 protease domain Q38H/I41S/D60bT/F60eS/Y60gW/D96K/F97G/ins97aA/T98P/F99L/C122S/G151H/Q175L/Q192D (enzyme)
chain: B31 chain with Y91K, N92G, E93A, S94P
B33: MTSP-1 Q38H/I41S/D60bT/F60eS/Y60gW/D96K/F97D/ins97aA/T98P/F99L/C122S/G151N/Q175L/Q192D (enzyme)
chain: B31 chain with Y91K, N92D, E93A, S94P, H146N
B34: MTSP-1 protease domain Q38H/I41A/D60bT/F60eK/Y60gF/F97T/ins97aE/T98G/F99L/C122S/H143R/G151N/Q175L/Q192V (enzyme)
chain: B31 chain with S26A, S50K, W52F, Y91D, N92T, S94G, H139R, H146N, D189V
B35: MTSP-1 Q38H/I41S/D60bT/F60eS/Y60gW/D96K/ins97aV/F97G/T98P/F99L/C122S/G151H/Q175L/Q192D (enzyme)
chain: B31 chain with Y91K, N92G, E93V, S94P
B36: MTSP-1 protease domain Q38H/I41S/D60bT/F60eS/Y60gW/D96K/F97G/ins97aV/T98P/F99L/C122S/T150S/G151H/Q175L/Q192D/Q209L (enzyme)
chain: B31 chain with Y91K, N92G, E93V, S94P, T145S, Q207L
B37: MTSP-1 protease domain L36Q/Q38H/I41S/D60bT/F60eS/Y60gW/D96K/F97G/ins97aV/T98P/F99L/C122S/G151H/Q175L/Q192D (enzyme)
chain: B31 chain with L21Q, Y91K, N92G, E93V, S94P
B38: MTSP-1 Q38H/I41S/D60bT/F60eS/Y60gW/D96V/F97G/ins97aV/T98P/F99L/C122S/G151H/Q175L/Q192D (enzyme)
chain: B31 chain with Y91V, N92G, E93V, S94P
B39: MTSP-1 protease domain Q38H/I41S/D60bT/F60eS/Y60gW/D96Y/F97R/ins97aD/T98G/F99L/C122S/G151H/Q175L/Q192D (enzyme)
chain: B31 chain with N92R, E93D, S94G
B40: MTSP-1 protease domain Q38H/I41S/D60bT/F60eS/Y60gW/D96K/F97G/ins97aV/T98P/F99L/M117K/C122S/G151H/Q175L/Q192D (enzyme)
chain: B31 chain with Y91K, N92G, E93V, S94P, M113K

Where a chain is given by its changes, count along the chain named. Numbers in names are those of the source.

Sequence of plasma purified human complement protein C3 (human) (P01024 23-667, chain 1 of 2): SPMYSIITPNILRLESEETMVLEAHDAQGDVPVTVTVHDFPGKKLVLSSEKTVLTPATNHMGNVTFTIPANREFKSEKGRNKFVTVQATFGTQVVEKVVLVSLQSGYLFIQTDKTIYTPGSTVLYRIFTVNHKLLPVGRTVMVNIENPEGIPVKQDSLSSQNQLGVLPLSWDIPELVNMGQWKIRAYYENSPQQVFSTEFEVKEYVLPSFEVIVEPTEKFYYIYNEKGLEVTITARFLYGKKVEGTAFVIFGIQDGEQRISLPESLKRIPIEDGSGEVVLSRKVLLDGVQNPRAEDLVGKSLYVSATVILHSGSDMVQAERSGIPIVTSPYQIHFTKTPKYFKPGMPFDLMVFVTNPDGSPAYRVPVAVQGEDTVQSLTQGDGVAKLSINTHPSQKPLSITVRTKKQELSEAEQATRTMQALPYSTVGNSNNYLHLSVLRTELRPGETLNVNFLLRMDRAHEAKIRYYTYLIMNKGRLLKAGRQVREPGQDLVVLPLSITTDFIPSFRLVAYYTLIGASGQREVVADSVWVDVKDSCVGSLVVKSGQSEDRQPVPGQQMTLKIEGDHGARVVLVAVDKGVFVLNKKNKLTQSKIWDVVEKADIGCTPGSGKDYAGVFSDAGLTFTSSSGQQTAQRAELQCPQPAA
Sequence of plasma purified human complement protein C3 (human) (P01024 672-1663, chain 2 of 2): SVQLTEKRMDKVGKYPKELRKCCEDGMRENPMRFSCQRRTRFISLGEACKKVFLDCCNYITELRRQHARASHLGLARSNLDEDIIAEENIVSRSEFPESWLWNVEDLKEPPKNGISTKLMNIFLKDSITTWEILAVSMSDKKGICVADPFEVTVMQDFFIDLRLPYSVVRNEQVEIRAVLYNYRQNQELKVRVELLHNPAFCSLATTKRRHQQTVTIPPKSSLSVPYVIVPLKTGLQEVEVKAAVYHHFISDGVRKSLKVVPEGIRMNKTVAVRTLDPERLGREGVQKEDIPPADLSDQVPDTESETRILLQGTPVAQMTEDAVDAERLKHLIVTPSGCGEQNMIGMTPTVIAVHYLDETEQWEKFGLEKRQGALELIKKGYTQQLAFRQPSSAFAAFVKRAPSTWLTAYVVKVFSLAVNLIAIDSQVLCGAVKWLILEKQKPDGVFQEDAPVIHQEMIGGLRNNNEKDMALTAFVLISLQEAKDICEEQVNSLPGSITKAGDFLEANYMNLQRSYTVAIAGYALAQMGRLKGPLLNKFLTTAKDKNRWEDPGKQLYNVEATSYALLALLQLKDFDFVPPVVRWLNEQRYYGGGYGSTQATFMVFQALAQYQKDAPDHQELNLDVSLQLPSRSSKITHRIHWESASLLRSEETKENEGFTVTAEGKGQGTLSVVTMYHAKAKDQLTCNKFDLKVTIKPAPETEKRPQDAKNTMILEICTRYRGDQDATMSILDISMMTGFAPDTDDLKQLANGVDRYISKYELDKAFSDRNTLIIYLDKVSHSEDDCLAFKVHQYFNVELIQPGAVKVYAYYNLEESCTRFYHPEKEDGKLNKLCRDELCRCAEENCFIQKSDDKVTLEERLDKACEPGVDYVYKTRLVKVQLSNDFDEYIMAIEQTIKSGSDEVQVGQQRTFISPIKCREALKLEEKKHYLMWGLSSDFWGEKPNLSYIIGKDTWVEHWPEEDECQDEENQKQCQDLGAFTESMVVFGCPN

The assay has as its target plasma purified human complement protein C3 (human) (UniProt P01024). Briefly: cell-based or functional assay.
Take B1: the EC50 hC3 cleavage was 47.8 nM.
On the same count and under the same terms, the result for B2 reads 401 nM.
Still for that read-out and setting: the result for B3 reads 36.8 nM; that for B4, 52.8 nM; that for B5, 108 nM.
Same read-out and setting: the result for B6 reads 34 nM.
For B7, the EC50 hC3 cleavage amounted to 524 nM.
On the same count and under the same terms, the figure for B8 is 84.4 nM; for B9 it is 860 nM; for B10 it is 45.6 nM.
Same read-out and setting: the result for B11 reads 155 nM; that for B12, 74.3 nM; that for B13, 105 nM.
For B14, the EC50 of hC3 cleavage was 2.87 nM.
Consider B15, for which the EC50 hC3 cleavage was 3.27 nM.
The same measure, in the same setting: the figure for B16 is 35.7 nM; for B17 it is 56.7 nM.
In turn, B18 gave an EC50 hC3 cleavage of 16.4 nM.
On the same count and under the same terms, the figure for B19 is 10.4 nM; for B20 it is 15.9 nM; for B21 it is 47.7 nM.
Same read-out and setting: the figure for B22 is 3.08 nM; for B23 it is 5.12 nM.
On the same count and under the same terms, the figure for B24 is 1.08 nM.
In the case of B25, the EC50 hC3 cleavage was determined as 19.1 nM.
The same measure, in the same setting: the result for B26 reads 9.47 nM.
Regarding B27, the EC50 hC3 cleavage was determined as 13.3 nM.
On the same count and under the same terms, the result for B28 reads 33.6 nM.
On the same count and under the same terms, the result for B29 reads 5.25 nM; that for B30, 10.8 nM; that for B31, 4.53 nM.
The molecule B32 came in with an EC50 hC3 cleavage of 1.43 nM.
B33 returned an EC50 of hC3 cleavage of 5.92 nM.
Take B34: the EC50 hC3 cleavage is 24.5 nM.
Molecule B35 yielded an EC50 of hC3 cleavage of 6.86 nM.
On to B36, for which the EC50 hC3 cleavage stood at 2.88 nM.
On the same count and under the same terms, the result for B37 reads 5.49 nM.
In the case of B38, the EC50 of hC3 cleavage is 2.85 nM.
Take B39: the EC50 hC3 cleavage is 5.71 nM.
Turning to B40, the EC50 hC3 cleavage was determined as 4.75 nM.
